Measurements reported in US20110206676A1 (UNIVERSITY OF CHICAGO, published 2011).

Target: T1, EsaC (Staphylococcus aureus, UniProt A0A0H2XIK2 1-130)
T1 construct: Predicted soluble 130 amino acid protein; also called EsaC polypeptide; purified EsaC
T1 sequence: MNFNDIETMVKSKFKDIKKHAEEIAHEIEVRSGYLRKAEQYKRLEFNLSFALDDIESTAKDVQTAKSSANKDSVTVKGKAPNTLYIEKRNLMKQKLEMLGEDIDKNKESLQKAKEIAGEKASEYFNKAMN
Assay: purified proteins mixed; method not described

B1: EsaB (other)
chain: MNQHVKVTFDFTNYNYGTYDLAVPAYLPIKNLIALVLDSLDISIFDVNTQIKVMTKGQLLVENDRLIDYQIADGDILKLL
notes: 80 amino acid predicted soluble protein; also called purified EsaB
binding result: no binding
